Measurements: the supplement of paper PMC9170038

System: MS2 coat protein
Test: apparent KD of MS2 coat protein; designed switch direction (-1 OFF switch, 1 ON switch): 1; higher = weaker reporter binding
Method in brief: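 Transcription of designed RNA switches on Illumina chips was done by stalled E. coli RNA polymerase. SNAP-549-labelled MS2 coat protein was then titrated in doubling steps from 0.7 or 1.5 nM to 3 µM, with steps of 0.8–1.5 h at the lowest and 10–20 min at the highest concentration. The per-design median over clusters of curve-fitted normalised fluorescence is reported as apparent KD.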

[1] = input ligand: microRNA oligo, concentration not stated
[2] = Eterna round: R95, input ligand: FMN 200 uM
[3] = Eterna round: R95, input ligand: microRNA oligo, concentration not stated
[4] = Eterna round: R95, input ligand: none

Sequence	apparent KD of MS2 coat protein (input ligand: FMN 200 uM) [nM]	apparent KD of MS2 coat protein [1] [nM]	apparent KD of MS2 coat protein (input ligand: none) [nM]	apparent KD of MS2 coat protein [2] [nM]	apparent KD of MS2 coat protein [3] [nM]	apparent KD of MS2 coat protein [4] [nM]
GACGUGAAGGCAGGAUAUGGGAAAGGAAGUGUACCAGAAGGGCCUGGAAAACAUGAGGAUCACCCAUGUGAACCCACGUCAGUU [PowerStrip SSNG 1.26] (Eterna round: R96, puzzle: Same State NG 1)	16	35.4	27.9			
GAGAGACAUGAGGAUCACCCAUGUAGGAGAAGACAAGGAUAUGUAGGAGAAGGAGAAGGAACAGAAGGUGUGGGAG [JR_SS1_Sub051] (puzzle: Same State 1)				57.9	96.6	109
GAGAGAGGAAGCGAGGAUAUCGUGUUGAGUACAUGAGGAUCACCCAUGUUGUAGGUAGAGGUAGGCGAGAAGGCGCAGGAGAGGU [JR_SS2_Sub098] (puzzle: Same State 2)				106	48.8	122
GAGAGAUGGCGAGGAUAUUCGGUGAUAAUGAUGGAAGAAGGCGCUGACAUGAGGAUCACCCAUGUGGGAAUAAUCCAGAGAGAG [Parity 16 - Jieux - Same State NG 1] (Eterna round: R96, puzzle: Same State NG 1)	306	154	257			
GAGCCAGUCCGAGGAUAUUCAUAACAUGAGGAUCACCCAUGUAGGCUCAGAAAAGAAGAGCCUUGGGAGAAGGCGGACUGGCUC [Xeonanisa<<5] (Eterna round: R96, puzzle: Same State NG 2)	9.88	30.2	43.8			
GAGCCAGUCCGAGGAUAUUCAUAUUAACACAUGAGGAUCACCCAUGUAGGCUCAGAAGAGCCCUGGGAGAAGGCGGACUGGCUC [SS-NG2-LRO15] (Eterna round: R96, puzzle: Same State NG 2)	85.5	455	1100			
GAGCGCUGUCGAGAGGAUAUGCGGUGAUGGACAUGAGGAUCACCCAUGUUAGCGAUAGCAUUACGGUAGAAGGCUCUACAGCUGC [Mat - Same State 2 - Mod of UCT - D87] (puzzle: Same State 2)					22.3	
GAGCUCCAACGCGGAGCUCCACAUGAGGAUCACCCAUGUACACAGGAUAUCACUCCCUUUGGGAGUGAGAAGGGUGGUUCGGAA [Bebeave] (Eterna round: R96, puzzle: Same State NG 3)	41.4	41.9	58.6			
GAGCUCGUGUGAGGAUAUGCCGCCGUUUCGGCUGCAGAAGGUGCUACGUUACAUGAGGAUCACCCAUGUCUCUGUUGUUUCGUA [salish99_SSNG1_r04_960] (Eterna round: R96, puzzle: Same State NG 1)	65.1	43.3	51.1			
GAGCUCGUGUGAGGAUAUGCCGCCGUUUCGGCUGCAGAAGGUGCUACGUUACAUGAGGAUCACCCAUGUCUCUGUUGUUUCGUC [salish99_SSNG1_r04_961] (Eterna round: R96, puzzle: Same State NG 1)	25.1	24.2	30			
GAGGAUGAUUUACAGGAUAUAUAGAAGAUGACAUGAGGAUCACCCAUGUAAGAGAGAGGAGGGAGAUAGAAGGGUAAGGGAUGUG [JR_SS2_Sub41] (puzzle: Same State 2)				35.4	27.8	49.6
GAGGGCGAAAGCAACAUGAGGAUCACCCAUGUCCUCGGAGGUCAGGAUAUCCGGCGGUAGCCGAAGGAGAAGGGACGGUGAACC [AK SSNG3-V2-32.1] (Eterna round: R96, puzzle: Same State NG 3)	180	97.5	175			
GAGUAGUUGAAAGGAUAUGGAUUGUUAUAGAAUCCAGAAGGUUCUAACAUGAGGAUCACCCAUGUAGGACUAUUCCUGUGUAUC [Parity 79 - Jieux - Same State NG 1] (Eterna round: R96, puzzle: Same State NG 1)	10.2	9.3	12.2			
GAGUAGUUGGGAGGAUAUCCAUUGUUAUAGAAUGGAGAAGGUUUUAACAUGAGGAUCACCCAUGUAGGACUAUUCCUGUGUAUC [Parity 72 - Jieux - Same State NG 1] (Eterna round: R96, puzzle: Same State NG 1)	13.5	12.2	16.8			
GAGUGACAUGAGGAUCACCCAUGUAGAAUAGAACAAGGAUAUGUGGAAGGCGGAGGAGAGACAGAAGGUGUUGAAG [JR_SS1_Sub057] (puzzle: Same State 1)				49	46	67.7
GAGUGGCAGUUAGGAUAUAUAGUGAUAAUUACAAUAGAAGGAACAGACAUGAGGAUCACCCAUGUAGGACUAAUCCAGAGAGAG [Parity 38 - Jieux - Same State NG 1] (Eterna round: R96, puzzle: Same State NG 1)	30.9	20.6	30.9			

Sequence	apparent KD of MS2 coat protein (input ligand: FMN 200 uM) [nM]	apparent KD of MS2 coat protein [1] [nM]	apparent KD of MS2 coat protein (input ligand: none) [nM]	apparent KD of MS2 coat protein [2] [nM]	apparent KD of MS2 coat protein [3] [nM]	apparent KD of MS2 coat protein [4] [nM]
GAUACACAUGAGGAUCACCCAUGUCGUAUGACAUGAGGAUAUGUACAGACUUCGGUCUGUACAGAAGGCAUGUGUC [SS1 - 1011 Omei Mod 2] (puzzle: Same State 1)					48.3	
GAUCGUUUGAUAGGAUAUCGCUAUACAUGAGGAUCACCCAUGUUUACCACGCUGGUUUUUCAUACCGAGAAGGAUUCUGAUGAA [salish99_SSNG02_r04_010] (Eterna round: R96, puzzle: Same State NG 2)	27.5	27.8	30.7			
GAUUCACAUGAGGAUCACCCAUGUCGUAAUAUGGGAGGAUAUACGUGGACCGUAGUCCGCGUAGAAGGCCUAAUUG [Mat - Same State 1 - Mod of JL - D25] (puzzle: Same State 1)					148	
GCACAUGAGGAUCACCCAUGUGCGAGAAAGACGGACCGGAUACAGGAUAUGCGCGAACGGAAGACGCAGAAGGGUGACCAAAAC [Anmaed] (Eterna round: R96, puzzle: Same State NG 3)	64.1	38.2	40.6			
GCACUGGCGGUAGGAUAUCUAGGAUAUGGGAAAGACUAAGUCUGUAGGUCACCUAACCCAGAAGGAGAGAAGGACACCGAAAGG [pwkr ssNG2 2FMN + F9.20] (Eterna round: R96, puzzle: Same State NG 2)	115	16.5	12.9			
GCACUGGCGGUAGGAUAUCUAGGAUAUGGGAAAGACUAAGUCUGUAGGUCACCUAACCCAGAAGGAGAGAAGGACCCUGUAAGG [pwkr ssNG2 2FMN + F9.22] (Eterna round: R96, puzzle: Same State NG 2)	6.55	1.33	18.1			
GCAGAACAUGAGGAUCACCCAUGUCUCUAAUAUCGAGGAUAUGGGCACGGUAUAUCCGAACCAGAAGGCGAACUGC [SS1 Teenbexe 15] (puzzle: Same State 1)					244	
GCAGUACACGCAGAGGAUAUGUCGGUAACGACAUGAGGAUCACCCAUGUGUACGGAAGUACUCAGACAGAAGGCUGUGUACUGCU [Same State 2 - Hyphema v.3] (puzzle: Same State 2)				19.4	79.1	96.2
GCAUUAGGCAUAGGAUAUCCAACAUGAGGAUCACCCAUGUCGCAGCGUGAAAAGAACGCUGCAAAGGAGAAGGAUGCGGUUUAC [Onususa] (Eterna round: R96, puzzle: Same State NG 2)	11.8	18.8	29.9			
GCCAACACAUGAGGAUAUGGCACCUUAUUGGUGCCAGAAGGCAUGUGAAUUCACAUGAGGAUCACCCAUGUAUUAUAGUUGGCA [Fiskers NG1ss - 19] (Eterna round: R96, puzzle: Same State NG 1)	18.8	75.1	121			
GCCAACGCAUGAGGAUAUGGCACCUUAUUGGUGCCAGAAGGCAUGUGUAUUCACAUGAGGAUCACCCAUGUAUUAUAGUUGGCA [Fiskers NG1ss - 16] (Eterna round: R96, puzzle: Same State NG 1)	18.2	132	176			
GCCAUCGUAUGAGGAUAUGGCACCGUUUCGGUGCCAGAAGGCAUGUCAAUUGACAUGAGGAUCACCCAUGUAUUAUCGAUGGCA [JL Fiskers NG1ss - 33 mod 6] (Eterna round: R96, puzzle: Same State NG 1)	99.8	485	925			
GCCGGCUGGUGAGGAUAUGGCACCUUAUUGGUGCCAGAAGGCAUGUCAAUUGACAUGAGGAUCACCCAUGUAUUAUGGUUGGCG [salish99_SSNG1_r04_606] (Eterna round: R96, puzzle: Same State NG 1)	567	63.2	85.4			
GCCGGCUGGUGAGGAUAUGGCACCUUAUUGGUGCCAGAAGGCAUGUCAAUUGACAUGAGGAUCACCCAUGUAUUGUCGUUGGCG [salish99_SSNG1_r04_608] (Eterna round: R96, puzzle: Same State NG 1)	819	194	399			
GCCGUAUAAACAUGAGGAUCACCCAUGUGCGCGAGAGCGGAUGAGGAUAUCGAUGGGUUUCCCGUCGAGAAGGCGUGGGUCGGC [JL SSNG3 3.97] (Eterna round: R96, puzzle: Same State NG 3)	31	41.1	55.2			
